Measured values published in patent publication US10221439B2, “Sensors, methods and kits for detecting nicotinamide adenine dinucleotides” (Max-Planck-Gesellschaft zur Förderung der Wissenschaften …, priority 2015, dated 2019).

Assay: Titration of NAD-specific FRET sensor with NAD^+ and NADP^+
Assay type: binding
Protocol: In order to evaluate, that these mutations were sufficient to fully switch the specificity of the cofactor binding site of SPR from NADP(H) to NAD(H), we prepared titration experiments according to the similar procedure explained herein (example 3). The labelled sensor were diluted in buffer solution containing defined concentrations of NAD^+ and NADP^+ and measure with the fluorimeter (TECAN) (FIG. 4).

B1: SPR mutant with Asp^41 and Ala^42: initial trial SPR mutant sensor for NAD^+ (conjugate, UniProt P35270 1-261, looked up, variant A41D R42A)
Sepiapterin reductase: MEGGLGRAVCLLTGASRGFGRTLAPLLASLLSPGSVLVLSDANDEALRQLEAELGAERSGLRVVRVPADLGAEAGLQQLLGALRELPRPKGLQRLLLINNAGSLGDVSKGFVDLSDSTQVNNYWALNLTSMLCLTSSVLKAFPDSPGLNRTVVNISSLCALQPFKGWALYCAGKAARDMLFQVLALEEPNVRVLNYAPGPLDTDMQQLARETSVDPDMRKGLQELKAKGKLVDCKVSAQKLLSLLEKDEFKSGAHVDFYDK
  affinity and specificity for NAD^+: low affinity, but high specificity for NAD^+
